This is an account of results in patent US5442053A, “Salts and mixtures of hyaluronic acid with pharmaceutically active substances, pharmaceutical compositions containing the same and methods for administration of such compositions” (Fidia, S.p.A., priority 1983, dated 1995).

The test system of this experiment is corneal epithelium. Nature of the experiment: Healing activity of EGF vehicled in hyaluronic acid, epithelial lesion of rabbit cornea. It is filed as in vivo, rabbit (male albino New Zealand). Conditions: for healing of lesions in the corneal epithelium: single eye. As to the method: The experiments were carried out on male albino New Zealand rabbits (average weight 1.8 kg). The animals, after a period of adaptation of about 5 days, underwent epithelial lesion of the cornea in suitable conditions of local anesthetic with Novesina (4%). The lesion consisted of a monocular scarification of a circular area in the optic zone effected by a concave glass cylinder (.phi. 3mm) with a sharp edge.
The animals were subdivided into groups, each group consisting of 5 animals, and subjected to pharmacological treatment by conjunctival instillation as follows:
Treatment was effected on the right eye (RE) by conjunctival instillation of 2 drops every 8 hours for 3 total administrations.
Healing of the corneal epithelium was evaluated by observation of the eye and photographic documentation with a slit lamp at various intervals after scarification: 0, 8 hours, 16 hours, 24 hours, 32 hours, 40 hours, and 48 hours.

B1: Epidermal growth factor (protein, UniProt P01133 23-1207, looked up)
Pro-epidermal growth factor: PQHWSCPEGTLAGNGNSTCVGPAPFLIFSHGNSIFRIDTEGTNYEQLVVDAGVSVIMDFHYNEKRIYWVDLERQLLQRVFLNGSRQERVCNIEKNVSGMAINWINEEVIWSNQQEGIITVTDMKGNNSHILLSALKYPANVAVDPVERFIFWSSEVAGSLYRADLDGVGVKALLETSEKITAVSLDVLDKRLFWIQYNREGSNSLICSCDYDGGSVHISKHPTQHNLFAMSLFGDRIFYSTWKMKTIWIANKHTGKDMVRINLHSSFVPLGELKVVHPLAQPKAEDDTWEPEQKLCKLRKGNCSSTVCGQDLQSHLCMCAEGYALSRDRKYCEDVNECAFWNHGCTLGCKNTPGSYYCTCPVGFVLLPDGKRCHQLVSCPRNVSECSHDCVLTSEGPLCFCPEGSVLERDGKTCSGCSSPDNGGCSQLCVPLSPVSWECDCFPGYDLQLDEKSCAASGPQPFLLFANSQDIRHMHFDGTDYGTLLSQQMGMVYALDHDPVENKIYFAHTALKWIERANMDGSQRERLIEEGVDVPEGLAVDWIGRRFYWTDRGKSLIGRSDLNGKRSKIITKENISQPRGIAVHPMAKRLFWTDTGINPRIESSSLQGLGRLVIASSDLIWPSGITIDFLTDKLYWCDAKQSVIEMANLDGSKRRRLTQNDVGHPFAVAVFEDYVWFSDWAMPSVMRVNKRTGKDRVRLQGSMLKPSSLVVVHPLAKPGADPCLYQNGGCEHICKKRLGTAWCSCREGFMKASDGKTCLALDGHQLLAGGEVDLKNQVTPLDILSKTRVSEDNITESQHMLVAEIMVSDQDDCAPVGCSMYARCISEGEDATCQCLKGFAGDGKLCSDIDECEMGVPVCPPASSKCINTEGGYVCRCSEGYQGDGIHCLDIDECQLGEHSCGENASCTNTEGGYTCMCAGRLSEPGLICPDSTPPPHLREDDHHYSVRNSDSECPLSHDGYCLHDGVCMYIEALDKYACNCVVGYIGERCQYRDLKWWELRHAGHGQQQKVIVVAVCVVVLVMLLLLSLWGAHYYRTQKLLSKNPKNPYEESSRDVRSRRPADTEDGMSSCPQPWFVVIKEHQDLKNGGQPVAGEDGQAADGSMQPTSWRQEPQLCGMGTEQGCWIPVSSDKGSCPQVMERSFHMPSYGTQTLEGGVEKPHSLLSANPLWQQRALDPPHQMELTQ
modifications: Pro-epidermal growth factor
notes: EGF (Epidermal growth factor), dissolved in saline (0.5 mg/5 ml)
Turning to B1, the “healing of lesions in the corneal epithelium” value was “+” (0 hours after scarification); “+” (8 hours after scarification); “+” (16 hours after scarification); “- and +” (24 hours after scarification); “-” (48 hours after scarification). Also, the animals healed (24 hours after scarification) is 4/5.
